# Test system: MS2 coat protein
# Assay: apparent KD of MS2 coat protein; higher = weaker reporter binding
# Conditions: Eterna round: R107
# Summary of the method: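 Apparent KD per design is the median of normalised cluster binding-curve fits. Designed RNA switches transcribed on-chip from Illumina sequencing clusters were titrated with SNAP-549-labelled MS2 coat protein in twofold steps from 0.7 or 1.5 nM to 3 µM, with 0.8–1.5 h down to 10–20 min per step. Buffer: 100 mM Tris-HCl pH 7.5, 80 mM KCl, 4 mM MgCl2, without or with constant ligand.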
# [1] = input ligand: theophylline 20 uM
# [2] = input ligand: theophylline 2 mM
# [3] = input ligand: tryptophan 2.4 mM
Sequence,apparent KD of MS2 coat protein (input ligand: arginine 13.2 mM) [nM],apparent KD of MS2 coat protein [1] [nM],apparent KD of MS2 coat protein [2] [nM],apparent KD of MS2 coat protein (input ligand: none) [nM],apparent KD of MS2 coat protein [3] [nM]
GGAGUAGGAAACUAUUCCAAUCCUCGUGAACGAGGACCGGUACGGCCGCCACUCGAUAAAUAAAUACAUGAGGAUCACCCAUGUU [Ex Tryptophan A 23],38,71.4,82.1,,
GGAUAGGACACGGCCGCCACUACCUAGGAUACUAGAAACAUUUCCUCACAUGAGGAUCACCCAUGUAGGACCGGGUGUCCUAUCG,106,284,351,,
GGAUGAAACUGAAGGAGCGAGAUCACAAGAUUGGGUCUAACAUGAGGAUCACCCAUGUAAUCUCAGGUAGGUCGCAGUGUCCCUU [Exclusion Arginine B GF 12],33,42,43.5,26.6,31.6
GGAUGCGGCACGGCCGCCACUGCGGUGGUGUGACAUGAGGAUCACCCAUGUUGUCAUGCGGCCCUUAGGACCGGGUGGCGUGUCC [#1 Exclusion - Tryptophan B Attempt #19 (HarryS)],37.2,57.4,56.3,,
GGAUGGAACUCGGCCGCCACUGGUGAUCCUAAUGUACAUGAGGAUCACCCAUGUACAUGAGAAGAUAGGACCGGGAGAUAAGGGA [Tryptophan B V4 (+4G)],19.9,24.3,26.3,19.3,20.7
GGCACCAGGAGAAGGAGCGUGAAGACAUGAGGAUCACCCAUGUAGAGGCCCGUACAGGGUUCGCAGGUAGGUCGCUCCUGGUGCC [#1 Same State - Arginine B Attempt #12 (HarryS)],19.3,27.3,22.6,18.4,18.8
GGCACCAGGAGAAGGAGCGUGAAGACAUGAGGAUCACCCAUGUAGAGGCGCCGACGGCGUUCGCAGGUAGGUCGCUCCUGGUGCC [#1 Same State - Arginine B Attempt #16 (HarryS)],20.9,32.3,23.5,21,29.3
GGCCCUGCGAGCGCUCGCAGGGCCGCGGAUACCAGCGAGGUCCAUCGCCCUUGGCAGCCGAACAUGAGGAUCACCCAUGUCGGUC [#1 Same State - Theophylline A Attempt #11 (HarryS)],11.4,18.7,28.1,11.6,10.7
GGCUGUCAUAGGAGGUGAAAUAUACUCGAAGGAGCGUCAUAGUAGGCAGGUAGGUCGCGAGACAUGAGGAUCACCCAUGUAGAGA [yyumullin],38.9,162,67.7,53.9,56.4
GGGCAAGAGGGAAGGAGCGUUAGCUGAGUCACAUGAGGAUCACCCAUGUCGCACGUAGUAUGACAGGUAGGUCGCCCUCUACCCU [SS-ArgB15],18,22.1,21.6,18.1,18.9
GGGCCCGGGCCGCGCGCGGCCCGGGCCCAACGAGGACCGGUACGGCCGCCACUCGAACGAGUGGGUACAUGAGGAUCACCCAUGU [Aaa],25.7,41.8,45,27,33.3
GGGUAAGAUCCGGAUACCAGCGAACAUGAGGAUCACCCAUGUGAAAUAAGAUAGAAUAAACGCCCUUGGCAGCCGAAAUAGAGUU [Same State Theophylline B GF 3],41.3,81.9,,,88.9
GGGUGGUAGGCGGCCGCCACUGAUUUUCAUUUAUAGAUGACAUGAGGAUCACCCAUGUUUAUGUGCAGGACCGGGCCUGCUGUGG [aaaT],102,130,137,68,78.2
GGUCUCUGGAGCGAUACCAGCUUGAUCGUACUAGCCUGGUACAUGAGGAUCACCCAUGUAAGCCCUUGGCAGCGCUCCAGAGACC [#1 Exclusion - Theophylline B Attempt #8 (HarryS)],11.8,15.8,21.4,12.7,12.1
GGUGGCGUGACGGAUACCAGCCACCACCGCAAGACCACAUGAGGAUCACCCAUGUUGGGUGGCCCUUGGCAGCUGUCGUGCGGCG [#1 Same State - Theophylline B Attempt #19 (HarryS)],15,331,475,213,110
GGUGGCUGGAUCGAUACCAGCCACCACCGAUAGACCACAUGAGGAUCACCCAUGUUGGGUGGCCCUUGGCAGCGGUCCAGCUGCC [#1 Same State - Theophylline B Attempt #5 (HarryS)],78.8,1010,1240,587,851
GUAAGACAUGAGGAUCACCCAUGUGUCGAUACCAGCCCUGCCUCUGGCCCUUGGCAGCGACUCGCACACCUCGCACUGCACAAGU [theeternabot_sameState_MS2_Theo_A_13],42.6,59.5,,,49
GUAAUUUAUUGAAGGAGCGUCGAAAAUGGGUAAACAUGAGGAUCACCCAUGUAAAGGGAACGACAGGUAGGUCGCAAUAGGUUAC [AstromonsSSArgB#29],103,252,285,192,197
GUACAUGAGGAUCACCCAUGUAUAGUUGAAGGAGCGACCAGAGGGUCAGGUAGGUCGCAGCACAUGGUGUAAACCCGUGUAUGCC [#1 Exclusion - Arginine A Attempt #22 (Inspired by Pi)],29.6,34.6,28.9,29.3,26.8

Sequence,apparent KD of MS2 coat protein (input ligand: arginine 13.2 mM) [nM],apparent KD of MS2 coat protein [1] [nM],apparent KD of MS2 coat protein [2] [nM],apparent KD of MS2 coat protein (input ligand: none) [nM],apparent KD of MS2 coat protein [3] [nM]
GUAUAUUGAAAACAAUAUACAGUGGGUGAACGAGGACCGGUACGGCCGCCACUCGGACAUGAGGAUCACCCAUGUCCAUGUGAAA [AstrosExyTryA#8],15.1,17.1,17.7,,
GUAUUCAUGACGGCCGCCACUGCAAGCCUCCUCAUGGCAGAUUGACAUGAGGAUCACCCAUGUCUCAGGACCGGGUCUGGCAUCC [theeternabot_sameState_MS2_Trp_B_43],65.8,244,346,,
GUAUUUAUAUGAAGGAGCGUCGAAAAUGGGUAAACAUGAGGAUCACCCAUGUAAAGGGAACGACAGGUAGGUCGCAUAUGGAUAC [AstromonsSSArgB#25],111,251,279,160,239
GUCCAAAGGUCGGCCGCCACUGUAGGAUGUGUUCUUUCACAUGAGGAUCACCCAUGUUGUUAUUAUAGGACCGGGAUUGUAGGAC [39MS split4],16.4,32.2,21.5,,
GUCGGAGUCUGAAGGAGCGACAUGAGGAUCACCCAUGUCUCCCGUUAUGGGAGUUCCUUAGGUCAGGUAGGUCGCAGACUCCGAC [#1 Exclusion - Arginine B Attempt #25 (Inspired by Omei)],78.1,145,144,141,140
GUCGGUACGUCGGCAAAGCCGAUGUGCCAGCGAGGACCGGUACGGCCGCCACUCGUACAUGAGGAUCACCCAUGUCCGGUCCGAC [Omei Trp SS A C v4],44.7,139,169,134,155
GUCUUGGGAUCGGCCGCCACUACAUGAGGAUCACCCAUGUGGACAAAUAGGGUUUUUAAGCUCGGUAGGACCGGGAUUCGGACAU [Marasosoge],12.9,16.7,16.3,,
GUGACUUACGGGCGCCAUUUGUGAUAGGAAGGAGCGGCGAAAUAGCCAGGUAGGUCGCCUAUACAUGAGGAUCACCCAUGUCACC [Veveatonus],45.1,64.9,84.6,105,72.6
GUGCCGCAUUCACAUGAGGAUCACCCAUGUCGAGGACCGGUACGGCCGCCACUCGACGUGCUUACAGGUCCUUUAAGGCCCAAUA [Usislaan],79,200,221,,
GUGCCGCAUUCACAUGAGGAUCACCCAUGUCGAGGACCGGUACGGCCGCCACUCGACGUGCUUACAGGUCCUUUACGGCCCAAUA [Biedxele],30.7,71.3,36.9,,
GUGGGUUUGCGAAGGAGCGGGUAUGUUUUCUACUGGAUCCUAACAUGAGGAUCACCCAUGUCCCAGGUAGGUCGCGCGGGCUUGG [12.Z],49.7,81.9,209,215,56.8
GUUGUAUACUCGGCCGCCACUGAGAGAGUCAUGUAAACAUGAGGAUCACCCAUGUAAUAUAUAUACAGGACCGGGAGUGUGGUAA [4.G],9.31,16,12,12.8,11.8
UAAGCGCGAGGAGACGGAACCAAUCUUGUUCGAGGACCGGUACGGCCGCCACUCGGCGUAAAACAUGAGGAUCACCCAUGUGCAA [theeternabot_exclusion_MS2_Trp_A_18],10.8,15.6,16.1,13.2,16.4
UAAUAAGUACCGGUUCUCAGAUCCUCAUGUCGAGGACCGGUACGGCCGCCACUCGAAACAUGAGGAUCACCCAUGUAAUAAUAAU [#07 Exclusion Tryptophan A],23.5,67.1,54.5,,
UACAGCAGUACGGCCGCCACUCUAAGAUUGCGCGUUUAGGCCAUACAUGAGGAUCACCCAUGUCCGAGGACCGGGUACAGGAAUU [theeternabot_sameState_MS2_Trp_B_29],88.3,416,502,185,89.2
UACAUGAGGAUCACCCAUGUAAGGUGAGAUACCAGUGAUAUGCUACACCCUUGGCAGCUCACGGCUGACUAUCAGCACACAUGUA [Theo A SS t1],28.2,34.4,,,26.8
UACAUGAGGAUCACCCAUGUAUGAAUAGAUACCAGCGAAAAUAAGCGCCCUUGGCAGCUAGUGAAUAAAGGGUGGGUAAAAUAAU [Exclusion Theophyline A GF 2],8.3,13.6,,,9.41
UACAUGAGGAUCACCCAUGUAUGAAUGGAUACCAGAUAAAAUAAGGUCCCUUGGCAGCUAGUGAAUCGAGGGUGGGUAUCAUGUU [#14 Exclusion-TheophyllineA],10.9,13.7,,,9.89

# Source: the supplement of paper PMC9170038
